From article PMC8266384, “A two-site flexible clamp mechanism for RET-GDNF-GFRα1 assembly reveals both conformational adaptation and strict geometric spacing” (Structure(London, England:1993), 2021) come the findings set out here.

Numbering of substitutions follows the chain as printed. Numbers in names are those of the source. Where “and” joins values, the source holds several entries; their conditions need not be identical. Equal entries are not always repeated.

For data set [1], the target named is zRET^ECD-zGDNF^mat.-zGFRα1a^D1-3 ternary complex (zRGα1a), 2:2:2 (zebrafish) (UniProt A8E7C6). Put plainly: cryo-EM micrographs, particle-pair analysis and 2D class averages; non-crosslinked zRGα1a at 0.1 mg/ml on Quantifoil grids (dataset 3); complex with complex in linear arrays.
Data set [2] addresses T1, zGDNF^mat._(Y158A)-zGFRα1a^D1−3WT complex (zebrafish, UniProt Q98TT9 1-353; Q98TU0 135-235, Y158A).
T1 sequence 1: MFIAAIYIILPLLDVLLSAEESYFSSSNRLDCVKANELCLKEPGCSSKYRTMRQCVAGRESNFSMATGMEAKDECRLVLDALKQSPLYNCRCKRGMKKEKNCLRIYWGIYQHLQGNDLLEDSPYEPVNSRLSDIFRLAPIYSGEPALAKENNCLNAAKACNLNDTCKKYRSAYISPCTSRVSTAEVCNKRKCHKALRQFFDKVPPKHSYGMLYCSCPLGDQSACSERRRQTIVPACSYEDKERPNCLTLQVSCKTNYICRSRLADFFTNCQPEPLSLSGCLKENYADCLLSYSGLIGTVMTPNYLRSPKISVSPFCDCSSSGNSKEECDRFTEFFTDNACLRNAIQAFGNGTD
T1 sequence 2: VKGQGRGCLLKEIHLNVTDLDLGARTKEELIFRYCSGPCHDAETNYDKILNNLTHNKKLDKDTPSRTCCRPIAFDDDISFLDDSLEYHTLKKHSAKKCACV
In words: MST.

Data set [3] deals with T2, zebrafish RET extracellular domain (zRET^ECD), A8E7C6.
T2 chain: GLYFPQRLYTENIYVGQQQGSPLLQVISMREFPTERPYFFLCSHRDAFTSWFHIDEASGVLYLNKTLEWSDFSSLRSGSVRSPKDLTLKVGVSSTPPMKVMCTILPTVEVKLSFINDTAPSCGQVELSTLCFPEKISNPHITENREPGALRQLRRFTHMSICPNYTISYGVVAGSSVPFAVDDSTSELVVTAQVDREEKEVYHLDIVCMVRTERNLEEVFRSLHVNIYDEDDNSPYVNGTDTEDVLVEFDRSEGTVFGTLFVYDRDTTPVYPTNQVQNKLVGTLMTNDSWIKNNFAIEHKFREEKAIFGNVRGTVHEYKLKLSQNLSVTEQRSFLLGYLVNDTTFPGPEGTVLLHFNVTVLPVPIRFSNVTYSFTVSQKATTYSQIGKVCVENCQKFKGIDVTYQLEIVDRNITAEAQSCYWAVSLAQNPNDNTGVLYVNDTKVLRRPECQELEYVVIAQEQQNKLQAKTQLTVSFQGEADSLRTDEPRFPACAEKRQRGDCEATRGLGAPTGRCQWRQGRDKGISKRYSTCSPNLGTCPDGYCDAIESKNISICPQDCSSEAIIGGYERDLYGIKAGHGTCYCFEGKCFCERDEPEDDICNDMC
Put plainly: MST. As to conditions: chain shown with the change.

Data set [4] concerns the molecule itself. In words: cryo-EM structure; reconstituted zRGα1a complex crosslinked by GraFix (glutaraldehyde), 0.1 mg/ml; 20 mM Tris pH 7.0, 150 mM NaCl, 1 mM CaCl2; untilted and 30° tilted datasets.
For data set [5], the target named is zebrafish RET extracellular domain (zRET^ECD) (zebrafish) (UniProt A8E7C6). In words: MST; zRET^ECD labelled with NHS-RED (50 nM fluorophore) held constant, unlabelled zGFRα1^D1-3-zGDNF^mat. (WT and mutants) in 1:1 serial dilution; 25°C; 20 mM HEPES pH 7.0, 150 mM NaCl, 1 mM CaCl2, 0.05 % Tween-20; quadratic fit, at least three repeats.
For data set [6], the target named is zRET^ECD with the CLD3-β2-β3 loop truncated to AAG (zRET^ECD_(P291-Q296:AAG)) (zebrafish) (UniProt A8E7C6). The description is as above.

Regarding “zRET^ECD-zGDNF^mat.-zGFRα1a^D1-3 ternary complex (zRGα1a), 2:2:2 (from UniProt A8E7C6 1-626; Q98TT9 1-353; Q98TU0 135-235)”, the stoichiometry N in data set [1] is 2 and 4.

B1: zebrafish RET extracellular domain (zRET^ECD) (domain or fragment)
chain: T2 chain
modifications: NHS-RED 2nd generation dye (amine reactive) in the MST only
On to B1, for which, in data set [2], the Kd was determined as 173 nM. That is a sub-micromolar value.

B2: zGDNF^mat.-zGFRα1a^D1-3 complex (2:2), wild type, Q98TT9;Q98TU0 N323A (protein)
chain 1: T1 sequence 1 with N323A
chain 2: T1 sequence 2 with A24Y
As to B2, in data set [3] (fluorescently labeled zRETECD, minimum of n = 3 repeats), the dissociation constant Kd is 88 nM.

B3: zGDNF^mat.-zGFRα1a^D1-3 complex (2:2), wild type, Q98TT9;Q98TU0 L156A (protein)
chain 1: T1 sequence 1
chain 2: T1 sequence 2 with L22A, A24Y
In data set [3], B3 registered a dissociation constant (Kd) of 88 nM.

B4: zebrafish GDNF, N-terminally truncated (zGDNF^mat.) (ligand, UniProt Q98TU0 135-235, looked up)
chain: T1 sequence 2 with A24Y
notes: One protomer; it stands as a dimer in the complexes; also called GDNF1; not shown: Protein A, C-terminal, cleaved
Consider B4, for which the “stoichiometry N” value in data set [4] amounted to 2.

B5: zGDNFwt-zGFR1α1a^D1−3_(N323A,E326A,E327A) complex (complex)
chain 1: T1 sequence 1 with N323A, E326A, E327A
chain 2: T1 sequence 2 with A24Y
In data set [5], B5 came in with a Kd of 2350 nM.

B6: zGDNF^mat.-zGFRα1a^D1-3 complex (2:2), wild type (complex)
chain 1: T1 sequence 1
chain 2: T1 sequence 2 with A24Y
B6: the dissociation constant (Kd) in data set [6] stood at 18 nM; in data set [5], 90 nM.

B7: zGDNF^mat._(Y158A)-zGFRα1a^D1−3WT complex (complex)
chain 1: T1 sequence 1
chain 2: T1 sequence 2
For the molecule B7, the fold decrease in affinity against the wild type in data set [5] is 2 fold.

B8: zGDNF^mat.WT-zGFR1α1a^D1−3_(E326A,E327A) complex (complex)
chain 1: T1 sequence 1 with E326A, E327A
chain 2: T1 sequence 2 with A24Y
With B8, in data set [5], the dissociation constant Kd is 170 nM. This counts as sub-micromolar.

The stoichiometry N is a count of units in the complex or per binding partner. The Kd is a measure of binding affinity in units of concentration. Low readings indicate tighter binding, high ones weaker binding.
